Measured values taken from patent US12570711B2, “Platforms for co-stimulation, novel car designs and other enhancements for adoptive cellular therapy” (Angeles Therapeutics, Inc., priority 2017, dated 2026).

T1: human MPL (Homo sapiens, UniProt P40238)
T1 construct: endogenous in cells; host or cells: HEL-92.1.7 (HEL) cells
T1 sequence (P40238 26-635): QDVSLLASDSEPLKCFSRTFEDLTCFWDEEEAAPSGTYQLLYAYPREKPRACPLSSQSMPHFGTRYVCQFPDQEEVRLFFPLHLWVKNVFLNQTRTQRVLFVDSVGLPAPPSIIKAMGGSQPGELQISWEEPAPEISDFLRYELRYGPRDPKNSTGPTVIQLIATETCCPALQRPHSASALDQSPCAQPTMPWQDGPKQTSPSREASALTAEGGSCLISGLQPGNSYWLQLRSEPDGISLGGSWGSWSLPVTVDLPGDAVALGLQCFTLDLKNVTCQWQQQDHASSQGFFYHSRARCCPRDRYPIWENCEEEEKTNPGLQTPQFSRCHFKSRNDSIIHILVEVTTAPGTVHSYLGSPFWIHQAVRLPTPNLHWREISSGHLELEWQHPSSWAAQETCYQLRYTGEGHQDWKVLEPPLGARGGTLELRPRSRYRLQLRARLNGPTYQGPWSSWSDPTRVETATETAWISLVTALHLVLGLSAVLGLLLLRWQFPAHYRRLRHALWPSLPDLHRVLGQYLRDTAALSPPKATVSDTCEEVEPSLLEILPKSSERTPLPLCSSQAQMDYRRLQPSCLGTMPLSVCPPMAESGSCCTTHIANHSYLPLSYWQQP

B1: IgSP-[hTRBC-opt2]: codon optimized TCRβ constant chain with signal peptide (protein)
chain: MDWIWRILFLVGAATGAHSFEGGTREDLKNVFPPEVAVFEPSEAEISHTQKATLVCLATGFYPDHVELSWWVNGKEVHSGVSTDPQPLKEQPALNDSRYCLSSRLRVSATFWQNPRNHFRCQVQFYGLSENDEWTQDRAKPVTQIVSAEAWGRADCGFTSESYQQGVLSATILYEILLGKATLYAVLVSALVLMAMVKRKDSRG
B2: IgSP-[hTRAC-opt2]: codon optimized TCRα constant chain with signal peptide (protein)
chain: MDWIWRILFLVGAATGAHSFEGGTRFEGGLEIQNPDPAVYQLRDSKSSDKSVCLFTDFDSQTNVSQSKDSDVYITDKTVLDMRSMDFKSNSAVAWSNKSDFACANAFNNSIIPEDTFFPSPESSCDVKLVEKSFETDTNLNFQNLSVIGFRILLLKVAGFNLLMTLRLWSS
B3: MPL-hu-161-2: 2nd generation CAR (41BB, CD3z) with humanized 161 scFv hu-161-2 targeting human MPL (protein)
chain: MALPVTALLLPLALLLHAARPDVVMTQSPSSLSASVGDRVTITCMASEDIYIRLAWYQQKPGNAPKLLIYAATSLETGVPSRFSGSGSGTDFTLTISSLQPEDFATYYCQQYWSSPWTFGGGTKVEIKGGGGSGGGGSGGGGSQVQLQESGPGLVKPSQTLSLTCTVSGYSITSDYTWNWIRQPPGNGLEWIGYITYSGSTSYNPSLKSRVLISVDTSKNQVSLKLSSVTAADTAVYYCARLGRRYTMDYWGQGTTVTVSSTREQKLISEEDLAKPTTTPAPRPPTPAPTIASQPLSLRPEACRPAAGGAVHTRGLDFACDIYIWAPLAGTCGVLLLSLVITLYCKRGRKKLLYIFKQPFMRPVQTTQEEDGCSCRFPEEEEGGCELRVKFSRSADAPAYQQGQNQLYNELNLGRREEYDVLDKRRGRDPEMGGKPRRKNPQEGLYNELQKDKMAEAYSEIGMKGERRRGKGHDGLYQGLSTATKDTYDALHMQALPPRSSGSGEGRGSLLTCGDVEENPGPHMTEYKPTVRLATRDDVPRAVRTLAAAFADYPATRHTVDPDRHIERVTELQELFLTRVGLDIGKVWVADDGAAVAVWTTPESVEAGAVFAEIGPRMAELSGSRLAAQQQMEGLLAPHRPKEPAWFLATVGVSPDHQGKGLGSAVVLPGVEAAERAGVPAFLETSAPRNLPFYERLGFTVTADVEVPEGPRTWCMTRKPGA
modifications: Synthetic Polynucleotide encoding a CAR with optional accessory module(s)

Assays:
RAJI-Luc cells = experiment: NSG mice xenografted with RAJI-Luc cells, CD19-CAR T cells with FKBP-fusion modules, with or without AP20187; format: in vivo, mouse; conditions: AP20187 40 μg every day for 10 days intraperitoneal
Method: T cells expressing the CAR and these accessory modules are tested using in vitro assays in the absence and presence of the dimerizer AP20187 (100 nM). […] Half the mice in each group (n =6) are administered 40 μg of AP20187 every day for 10 days by intraperitoneal injection as described previously (Chinnery et al, J Immunol 2009; 182:2738-2744).

human MPL [1] = target: T1, human MPL; experiment: NFAT-driven GFP expression and IL2 production of parental and TCR-deficient J-N-G cells exposed to HEL.92.1.7 cells; format: cell-based; conditions: MPL-specific TFP-expressing J-N-G cells with the corresponding TCR chain knocked out; HEL.92.1.7 co-culture
Text: Jurkat-NFAT-GFP (J-N-G) cells (T cell lymphoma) are infected with lentiviral vectors expressing gRNAs targeting TCRα and TCRβ1/β2 constant chains and coexpressing Streptococcus Pyogenes Cas9. The exemplary gRNA target sequences for TCRα chains are given in SEQ ID NO: 7754 and 7755. The exemplary gRNA target sequences for TCRβ1/β2 chains are given in SEQ ID NO: 7756-7758. In an alternative embodiment, the TCRα and TCRβ1/β2 constant chain loci are targeting using gRNA and TALONs as described in Knipping F et al, Molecular Therapy: Methods & Clinical Development, Vol 4, 2017. J-N-G cells lacking the expression of TCRα or TCRβ1/β2 chains are purified by cell sorting using antibodies directed against TCR/CD3 complex. […] Expression of TFPs in the cells is determined by immunostaining with Protein L staining and by staining with MPL-ECD-GGSG-NLuc-AcVS fusion protein (SEQ ID NO: 4923). J-N-G parental cells show robust TFP expression on cell surface while J-N-G cells lacking TCRα or TCRβ1/β2 chains show poor to absent TFP expression. The different populations of J-N-G cells are exposed to HEL.92.1.7 target cells for 24 hours and examined for increase in NFAT-promoter driven GFP expression and IL2 production. J-N-G parental cells expressing MPL-specific TFPs show marked increase in GFP fluorescence and IL2 secretion upon co-culture with HEL.92.1.7 cells. […]

human MPL [2] = target: T1, human MPL; experiment: Jurkat-NFAT-EGFP (J-N-G) reporter: EGFP induction upon co-culture with HEL cells; format: cell-based; conditions: 4 h
Text: Jurkat cell line (clone E6-1) engineered with a NFAT-dependent EGFP (or GFP) reporter gene was a gift from Dr. Arthur Weiss at University of California San Francisco and have been described to study CAR-signaling ((Wu, C Y et al., Science 350:293-302, 2015). Jurkat cells were maintained in RPMI-1640 medium supplemented with 10% FBS, penicillin and streptomycin.
The murine monoclonal antibody 161 targets human MPL (Thrombopoietin receptor o TPO-R). To generate a CAR targeting MPL but with reduced immunogenicity, sequence of the scFV fragment comprising the antigen binding domain of the murine 161 antibody was humanized. […] Jurkat-NFAT-EGFP (J-N-G) cells were stably transduced with the lentivirus encoding the humanized MPL-hu-161-2 CAR construct. The parental and CAR-expressing Jurkats were subsequently cocultured with HEL cells and induction of EGFP expression monitored by FACS analysis after 4 h.
The murine monoclonals 175 and 111 also bind human MPL. […] The experiment is repeated as in the preceding example.
The sequence of these TFP CAR constructs is shown in SEQ ID NO: 3526 to 3533. […]
Several Ab-TCR are constructed targeting MPL based on murine 161 scFV as the antigen binding domain. […] T cells expressing MPL Ab-TCRs are shown to induce lysis of HEL-GLuc cells as measured by increase in GLuc activity. […]

| Molecule | TFP surface expression, GFP expression and IL2 secretion after expression of the constant chain (human MPL [1]) | other results |
| --- | --- | --- |
| CC[C@H](C(=O)N1CCCC[C@H]1C(=O)O[C@H](CCc1ccc(OC)c(OC)c1)c1cccc(OCC(=O)NCC(CNC(=O)COc2cccc([C@@H](CCc3ccc(OC)c(OC)c3)OC(=O)[C@@H]3CCCCN3C(=O)[C@@H](CC)c3cc(OC)c(OC)c(OC)c3)c2)CN(C)C)c1)c1cc(OC)c(OC)c(OC)c1 [AP20187] | – | expansion of CAR-T cells in vivo (RAJI-Luc cells): promote the expansion of CAR-T cells |
| B1 | increased expression of TFP on the cell surface and induction of GFP expression and IL2 secretion | – |
| B2 | increased expression of TFP on the cell surface and induction of GFP expression and IL2 secretion | – |
| B3 | – | EGFP expression (human MPL [2]): increase in EGFP expression |
